Blank lines part the entries; values can stand above or below the substance they belong to.
What was measured:
B*27:05/photoRL9 (human) [1] = target: B*27:05/photoRL9 (human)
B*27:09/photoRL9 (human) [2] = target: B*27:09/photoRL9 (human)
A*02:01/photoKV9 (human) [3] = target: A*02:01/photoKV9 (human)
A*03:01/photoKK9 (human) [4] = target: A*03:01/photoKK9 (human)
B*27:05/photoRL9 (human) [5] = target: B*27:05/photoRL9 (human); remark: listed apart in the source
B*27:09/photoRL9 (human) [6] = target: B*27:09/photoRL9 (human); remark: listed apart in the source
A*03:01/photoKK9 (human) [7] = target: A*03:01/photoKK9 (human); remark: listed apart in the source
A*03:01/photoKK9 (human) [8] = target: A*03:01/photoKK9 (human); remark: listed apart in the source
B*27:09/photoRL9 (human) [9] = target: B*27:09/photoRL9 (human); remark: listed apart in the source
A*03:01/photoKK9 (human) [10] = target: A*03:01/photoKK9 (human); remark: listed apart in the source
B*27:05/photoRL9 (human) [11] = target: B*27:05/photoRL9 (human); remark: listed apart in the source
B*27:09/photoRL9 (human) [12] = target: B*27:09/photoRL9 (human); remark: listed apart in the source
A*02:01/photoKV9 (human) [13] = target: A*02:01/photoKV9 (human); remark: listed apart in the source
A*03:01/photoKK9 (human) [14] = target: A*03:01/photoKK9 (human); remark: listed apart in the source

Substance: ERp57-Tapasin conjugate (wild-type) (from UniProt O15533 21-398; P30101 25-504) (complex)
fold increase of the peptide exchange rate (observed Kon of FITC-RL9, fluorescence polarisation) of 500 nM UV-exposed B*27:05/photoRL9 with equimolar ERp57-Tsn^WT against none (B*27:05/photoRL9 (human) [1]): 5.83 fold
fold increase of the peptide exchange rate (observed Kon of FITC-RL9, fluorescence polarisation) of 500 nM UV-exposed B*27:09/photoRL9 with equimolar ERp57-Tsn^WT against none (B*27:09/photoRL9 (human) [2]): 3.83 fold
fold increase of the peptide exchange rate (observed Kon of FITC-GV9, fluorescence polarisation) of 500 nM UV-exposed A*02:01/photoKV9 with equimolar ERp57-Tsn^WT against none (A*02:01/photoKV9 (human) [3]): 1.31 fold
fold increase of the peptide exchange rate (observed Kon of FITC-KK9, fluorescence polarisation) of 500 nM UV-exposed A*03:01/photoKK9 with equimolar ERp57-Tsn^WT against none (A*03:01/photoKK9 (human) [4]): 10.9 fold

relative catalytic activity in peptide exchange, (Kon mutant - Kon noTsn)/(Kon WT - Kon noTsn); UV-exposed B*27:05/photoRL9, FITC-RL9 (B*27:05/photoRL9 (human) [5]): 0.86 of WT
relative catalytic activity in peptide exchange, (Kon mutant - Kon noTsn)/(Kon WT - Kon noTsn); UV-exposed B*27:09/photoRL9, FITC-IF9 (B*27:09/photoRL9 (human) [6]): 0.95 of WT
relative catalytic activity in peptide exchange, (Kon mutant - Kon noTsn)/(Kon WT - Kon noTsn); UV-exposed A*03:01/photoKK9, FITC-KK9 (A*03:01/photoKK9 (human) [7]): 0.77 of WT
relative catalytic activity in peptide exchange; UV-exposed A*03:01/photoKK9, FITC-KK9 (second printing, other number) (A*03:01/photoKK9 (human) [8]): 0.73 of WT
Substance: ERp57-Tsn^K16G (from UniProt O15533 21-398; P30101 25-504) (complex)

relative catalytic activity in peptide exchange against ERp57-Tsn^WT; UV-exposed B*27:09/photoRL9, FITC-IF9 (B*27:09/photoRL9 (human) [9]): 1.26 of WT
relative catalytic activity in peptide exchange against ERp57-Tsn^WT; UV-exposed A*03:01/photoKK9, FITC-KK9 (A*03:01/photoKK9 (human) [10]): 0.93 of WT
Substance: ERp57-Tsn^K16L (from UniProt O15533 21-398; P30101 25-504) (complex)

relative catalytic activity in peptide exchange, (Kon mutant - Kon noTsn)/(Kon WT - Kon noTsn); UV-exposed B*27:05/photoRL9, FITC-RL9 (B*27:05/photoRL9 (human) [5]): 0.05 of WT
relative catalytic activity in peptide exchange, (Kon mutant - Kon noTsn)/(Kon WT - Kon noTsn); UV-exposed B*27:09/photoRL9, FITC-IF9 (B*27:09/photoRL9 (human) [6]): 0.04 of WT
relative catalytic activity in peptide exchange, (Kon mutant - Kon noTsn)/(Kon WT - Kon noTsn); UV-exposed A*03:01/photoKK9, FITC-KK9 (A*03:01/photoKK9 (human) [7]): 0.36 of WT
Substance: ERp57-Tsn^L18G (from UniProt O15533 21-398; P30101 25-504) (complex)

Substance: TAPBPR (TAP-binding protein-related protein) (from UniProt Q9BX59 19-405) (natural protein)
fold increase of the peptide exchange rate (observed Kon of FITC-RL9, fluorescence polarisation) of 500 nM UV-exposed B*27:05/photoRL9 with equimolar TAPBPR against none (B*27:05/photoRL9 (human) [11]): 1.48 fold
fold increase of the peptide exchange rate (observed Kon of FITC-RL9, fluorescence polarisation) of 500 nM UV-exposed B*27:09/photoRL9 with equimolar TAPBPR against none (B*27:09/photoRL9 (human) [12]): 3.13 fold
fold increase of the peptide exchange rate (observed Kon of FITC-GV9, fluorescence polarisation) of 500 nM UV-exposed A*02:01/photoKV9 with equimolar TAPBPR against none (A*02:01/photoKV9 (human) [13]): 30.9 fold
fold increase of the peptide exchange rate (observed Kon of FITC-KK9, fluorescence polarisation) of 500 nM UV-exposed A*03:01/photoKK9 with equimolar TAPBPR against none (A*03:01/photoKK9 (human) [14]): 34.3 fold

Source: publication PMC8271027
